Results as given in the supplement of paper PMC9732359.
± gives the uncertainty stated by the source.

Experiment: protein stability index of a GFP-peptide fusion (yeast GPS) (PSI 1-4); higher = more stable; sorted into four equal gates, so the index is relative within each strain
Outline: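 Plasmids in a pooled yeast library fused tiled 17-residue yeast protein peptides downstream of GFP and also expressed Cherry. Mid-log cultures grown without leucine were sorted into four equal gates by GFP/Cherry fluorescence ratio. Each gate's plasmids were PCR-amplified and Illumina-sequenced, and reads were matched to strains by barcodes. The protein stability index is derived by multiplying each gate's read frequency by its gate number and summing the results.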

Sequence | protein stability index (doa10∆) | protein stability index (pdr5∆) | protein stability index (san1∆) | protein stability index (ubr1∆)
KPAFSFGAKPDENKASA [YJL041W/NSP1] | 3.16 ± 0.093 | 3.3 ± 0.074 | 2.76 ± 0.06 | 3.24 ± 0.063
ENGERKLYDAKRYTSEG [YMR129W/POM152] | 3.35 ± 0.12 | 2.92 ± 0.1 | 2.96 ± 0.1 | 3.29 ± 0.085
TSQKMTSTVNRLNTVTR [MCD1] | 3.16 ± 0.094 | 2.94 ± 0.18 | 3.57 ± 0.18 | 3.09 ± 0.098
KLRKIAISKKNKSLKYV [LIN1] | 1.65 ± 0.062 | 1.33 ± 0.059 | 1.23 ± 0.14 | 1.15 ± 0.048
RMMGCVKKQKSARGIET [FAS2] | 1.59 ± 0.09 | 1.4 ± 0.1 | 1.36 ± 0.16 | 1.48 ± 0.064
QLTVCGAIIGWTRGTGL [FAS2] | 1.26 ± 0.079 | 1.18 ± 0.067 | 1.09 ± 0.23 | 1.3 ± 0.085
NNRRRSRKRGGENVFLK [SIR3] | 3.6 ± 0.11 | 3.23 ± 0.084 | 3.07 ± 0.086 | 3.33 ± 0.048
ASGCNVTPIIDGIVVKN [ARP7] | 1.9 ± 0.064 | 2.38 ± 0.063 | 2.25 ± 0.077 | 2.9 ± 0.055
GIRIISLTYKKISLRDI [RPN3] | 1.78 ± 0.068 | 1.4 ± 0.065 | 1.29 ± 0.15 | 1.5 ± 0.053
SRKRNEEEDAKNPLFSY [RPL31A] | 2.48 ± 0.078 | 2.91 ± 0.059 | 2.58 ± 0.074 | 2.12 ± 0.043
QDKMFVSNPIRKVFKPS [FAS1] | 3.01 ± 0.058 | 2.62 ± 0.054 | 2.03 ± 0.1 | 2.68 ± 0.06
DDDIEKQEQEEKIKSKK [YCG1] | 3.08 ± 0.067 | 2.99 ± 0.056 | 3.01 ± 0.052 | 3.14 ± 0.049
LASKAARKSAPSTGGVK [HHT1] | 2.89 ± 0.15 | 3.12 ± 0.12 | 2.99 ± 0.076 | 3.05 ± 0.1
HDWLNALDGDLIELLEK [YCG1] |  | 3.32 ± 0.2 | 2.75 ± 0.24 | 3.55 ± 0.11
FSPVISQSLTSILVIVQ [SWI1] | 1.43 ± 0.048 | 1.66 ± 0.05 | 1.33 ± 0.076 | 1.33 ± 0.04
TTTLAFRFQGGIIVAVD [PRE2] | 3.27 ± 0.096 | 3.07 ± 0.083 | 2.81 ± 0.072 | 3.26 ± 0.09
PQQSRYISFIKDDRFVP [RPN2] | 2.67 ± 0.055 | 2.87 ± 0.036 | 2.98 ± 0.044 | 3.11 ± 0.035
GGSTTNNTTTTSTKPSF [YOR098C/NUP1] | 2.79 ± 0.075 | 3.01 ± 0.074 | 2.8 ± 0.072 | 2.75 ± 0.067
SGKITDFIKFDAGKLVY [RPS4A] | 3.17 ± 0.066 | 2.92 ± 0.061 | 2.8 ± 0.06 | 3 ± 0.064
INSENDYSRKQLGYGKF [NUT1] | 3.46 ± 0.26 |  |  | 3.17 ± 0.22
GNLYSKVMNNSFKLCTL [YML103C/NUP188] | 3.21 ± 0.21 | 2.8 ± 0.15 | 2.87 ± 0.14 | 3.07 ± 0.22
VMEYDVKFYEIFNFDQL [SRB8] | 1.97 ± 0.11 | 1.9 ± 0.12 | 1.66 ± 0.13 | 1.74 ± 0.1
QSISQNSSSSTPNTNSN [SWI1] | 2.73 ± 0.055 | 2.8 ± 0.049 | 2.9 ± 0.051 | 2.82 ± 0.048
APIADDNHSGDATANAT [DSN1] | 3.15 ± 0.1 | 3.08 ± 0.071 | 3.27 ± 0.083 | 3.38 ± 0.076
PRMVRDVFRLARENAPS [RPT3] | 2.62 ± 0.17 | 2.88 ± 0.059 | 2.86 ± 0.16 | 2.89 ± 0.097
CDQTKSVPLMINAKNIA [RRP43] | 1.74 ± 0.061 | 2.21 ± 0.078 | 1.53 ± 0.11 | 1.61 ± 0.068
ISQSQLGKFKNIIASPL [SIN4] | 1.73 ± 0.067 | 1.96 ± 0.049 | 2.01 ± 0.088 | 2.08 ± 0.057

Sequence | protein stability index (doa10∆) | protein stability index (pdr5∆) | protein stability index (san1∆) | protein stability index (ubr1∆)
KLIPKLYRYRFDPFQAV [ECM29] | 2.86 ± 0.14 | 2.77 ± 0.14 | 2.71 ± 0.11 | 2.8 ± 0.063
NNGVSNLWKNIFLSKEN [COR1] | 2.98 ± 0.082 | 2.9 ± 0.059 | 2.67 ± 0.089 | 2.4 ± 0.058
GGSAKPSLKFKPKAVAR [RPC53] | 2.79 ± 0.11 | 2.7 ± 0.081 | 2.44 ± 0.067 | 2.92 ± 0.073
LEDKLRAVLTPLITRHC [RRP46] | 2.53 ± 0.059 | 2.2 ± 0.05 | 2.33 ± 0.064 | 2.44 ± 0.035
LSEDKKKLDYVLALKVE [RPS9A] | 1.31 ± 0.17 | 2.22 ± 0.23 | 1.41 ± 0.16 | 1.49 ± 0.29
VGVSHTNEEVRNMAEEF [CYT1] | 2.85 ± 0.13 | 2.35 ± 0.07 | 2.01 ± 0.13 | 2.22 ± 0.043
DAKKCIAACTGVPDDKW [FAS1] | 2.63 ± 0.092 | 2.35 ± 0.058 | 2.16 ± 0.11 | 2.78 ± 0.071
KTLEKLESTIAETQGSK [IRR1] |  |  | 1.39 ± 0.27 | 
ARVLSNYLRQQCNYSSL [PRE5] | 2.71 ± 0.17 | 2.96 ± 0.11 |  | 2.78 ± 0.087
RLNFNQNSSKIVNVLSK [SWI3] | 2.56 ± 0.057 | 2.7 ± 0.051 | 3.04 ± 0.048 | 2.93 ± 0.042
EVKTPKIPLFTFAKSKN [SIR4] | 2.77 ± 0.054 | 2.98 ± 0.06 | 2.57 ± 0.043 | 2.81 ± 0.042
HEILSEPAIEEENGDSI [MED1] | 2.98 ± 0.17 | 3.11 ± 0.12 | 2.99 ± 0.19 | 3.26 ± 0.14
RDDLFVRNLQGIQEVVH [NUT1] | 2.9 ± 0.09 | 3.2 ± 0.094 | 3.15 ± 0.073 | 3.23 ± 0.068
TAKPAFSFGAKPAEKNN [YJL041W/NSP1] | 3.19 ± 0.11 | 3.35 ± 0.12 | 3.19 ± 0.11 | 3.4 ± 0.15
KVIDLDTKLKAHELQSE [YIL149C/MLP2] | 2.55 ± 0.055 | 2.73 ± 0.053 | 2.58 ± 0.059 | 2.69 ± 0.042
ELQKIWQIEEAGNSQIT [SRB5] | 2.77 ± 0.08 | 3.04 ± 0.11 | 3.08 ± 0.048 | 3.05 ± 0.066
LIAHQRSAWNNNNDNDA [GRR1] | 2.25 ± 0.049 | 2.65 ± 0.039 | 2.62 ± 0.05 | 2.65 ± 0.039
RYDSNSGGEREIQRTML [RPT2] | 3.43 ± 0.12 | 3.62 ± 0.096 | 3.39 ± 0.12 | 3.38 ± 0.1
EAAAKEKDELDNIEVSK [QCR7] | 3.18 ± 0.098 | 3.41 ± 0.079 | 3.29 ± 0.084 | 3.22 ± 0.055
EDKRKVRSAEYYAKKRA [RPL16B] | 3.31 ± 0.1 | 3.38 ± 0.089 | 3.36 ± 0.071 | 3.46 ± 0.055
PTVNRVPNYEVSEKAFL [RPN7] | 1.14 ± 0.12 | 1.68 ± 0.1 | 1.79 ± 0.22 | 1.18 ± 0.17
STSFKNPRRLEIKDGRS [YMR153W/NUP53] | 3.06 ± 0.084 | 3.06 ± 0.09 | 2.83 ± 0.085 | 3.16 ± 0.041
MYQEWEDETVKVAQLRQ [NSL1] | 3.63 ± 0.085 | 3.47 ± 0.076 | 3.372 ± 0.032 | 3.5 ± 0.07
TSSLQLYKFQNFQDLSY [YML103C/NUP188] | 2.81 ± 0.065 | 3.04 ± 0.064 | 2.84 ± 0.055 | 2.65 ± 0.071
HVLRGVESPDKNVRFRV [YCG1] |  | 3.68 ± 0.2 | 3.16 ± 0.15 | 
SLPEGLLKSLWDYVKKN [TAF14] | 3.01 ± 0.17 | 2.02 ± 0.079 |  | 3.13 ± 0.093
